Source: publication PMC11413682, “SARS-CoV-2 ORF10 hijacking ubiquitination machinery reveals potential unique drug targeting sites” (Acta Pharmaceutica Sinica. B, 2024)

Molecular target: T1, CUL2^ZYG11B (residues 490–728) (human, UniProt Q9C0D3 490-728)
T1 construct: human ZYG11B, substrate receptor of the cullin-2 RING E3 ligase; ARM3–ARM8 repeats, residues 490–728; also called CUL2^ZYG11B(490–728); ARM3–ARM8; source: E. coli, purified (Ni-NTA, TEV cleavage, HiTrap Q HP, gel filtration); not shown: His6, N-terminal, cleaved; SUMO, N-terminal, cleaved
Assay: ITC; MicroCal iTC200; peptides (0.5–1 mmol/L) in the syringe, CUL2^ZYG11B(490–728) (0.03 mmol/L) in the cell; 18 injections of 2 μL; repeated 3 times
Settings: both partners purified

T1 sequence (Q9C0D3 490-728): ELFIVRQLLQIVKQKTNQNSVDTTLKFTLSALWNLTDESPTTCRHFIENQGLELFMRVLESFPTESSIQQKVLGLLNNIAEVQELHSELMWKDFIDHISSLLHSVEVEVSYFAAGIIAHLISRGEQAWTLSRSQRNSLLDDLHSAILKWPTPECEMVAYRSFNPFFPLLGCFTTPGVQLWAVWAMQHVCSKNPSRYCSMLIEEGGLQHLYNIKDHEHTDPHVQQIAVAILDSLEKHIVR

B1: SARS-CoV-2 ORF10 N5 peptide (peptide)
peptide: GYINV
notes: first five residues of the SARS-CoV-2 ORF10 N-terminal extension; also called five-residue peptide; source: synthetic peptide
Binder B1 has a Kd of 2940 nM.
